Test results: article PMC9672302, “H2A.Z deposition by SWR1C involves multiple ATP-dependent steps” (Nature Communications, 2022)
Blank lines part the entries; values can stand above or below the molecule they belong to.

Key:
[1] = target: SWR1C-nucleosome (SWR1C bound to the tethered biotinTEG-117N4-ATTO 647N H2A nucleosome) (S. cerevisiae | not stated (X. laevis H3.1 or H. sapiens H3.2 C110A made) | X. laevis | yeast (endogenous in the FLAG-tagged Swr1 yeast strain)) (UniProt P04911); experiment: single-molecule fluorescence colocalisation (TIRF, smFRET set-up); biotinTEG-117N4-ATTO 647N nucleosomes incubated with 25 nM SWR1C and tethered on a streptavidin-coated slide; 50 nM Cy3B-labeled H2A.Z-H2B dimer, 50 nM Chz1, 200 uM ATP, 10 nM 77N0 nucleosome in solution; room temperature; 5 min of acquisition
[2] = target: H2A.Z nucleosomal product with SWR1C (tethered biotinTEG-117N4-ATTO 647N nucleosome after dimer exchange) (S. cerevisiae | not stated (X. laevis H3.1 or H. sapiens H3.2 C110A made) | X. laevis | yeast (endogenous in the FLAG-tagged Swr1 yeast strain)) (UniProt Q12692); experiment: single-molecule fluorescence colocalisation (TIRF, smFRET set-up); tethered biotinTEG-117N4-ATTO 647N, Cy3B-labeled H2A nucleosome with 30 nM SWR1C, 70 nM H2A.Z-H2B dimer, 70 nM Chz1; 0.5 uM ATP; time from the end of eviction (loss of FRET) to the loss of the Cy3B signal, Kaplan-Meier half-life; room temperature
[3] = target: H2A.Z nucleosomal product with SWR1C (tethered biotinTEG-117N4-ATTO 647N nucleosome after dimer exchange) (S. cerevisiae | not stated (X. laevis H3.1 or H. sapiens H3.2 C110A made) | X. laevis | yeast (endogenous in the FLAG-tagged Swr1 yeast strain)) (UniProt Q12692); experiment: single-molecule fluorescence colocalisation (TIRF, smFRET set-up); as a6 but with 100 uM ATP
[4] = test system: SWR1C (SWR1 complex) (Saccharomyces cerevisiae (FLAG-tagged Swr1 strain)); experiment: fluorescence polarization; conditions: FP: 25 mM HEPES-KOH pH 7.6, 70 mM KCl, 0.2 mM EDTA, 5 mM MgCl2, 1 mM DTT, 0.1 mg/mL BSA, 10 nM nucleosome, 1 mM nucleotide where added, 20 min, room …
SWR1C [5] = target: T1, SWR1C (Saccharomyces cerevisiae, UniProt Q05471); experiment: single-molecule FRET of H2A/H2B eviction from immobilised nucleosomes; format: biochemical; conditions: co-substrates yeast/Xenopus hybrid nucleosome 117N4, H2A.Z/H2B dimer, chaperone Chz1; 0-100 uM ATP; 4 mM MgCl2, pH 7.6, room temperature
T1 construct: gene SWR1; native multi-subunit remodeler complex purified from a yeast strain with FLAG-tagged Swr1, eluted with 3x FLAG peptide; tag kept; with SWR1-complex protein 5; SWR1-complex protein 3; Vacuolar protein sorting-associated protein 71; Actin-like protein ARP6; Vacuolar protein sorting-associated protein 72; SWR1-complex protein 4; SWR1-complex protein 7; Protein AF-9 homolog; Bromodomain-containing factor 1; Actin-related protein 4; Actin; RuvB-like protein 1; RuvB-like protein 2

[6] = target: H2A nucleosome (77N4-ATTO 647N nucleosome) (S. cerevisiae | not stated (X. laevis H3.1 or H. sapiens H3.2 C110A made) | X. laevis) (UniProt P04911); experiment: fluorescence polarisation; as a1 but with 1 mM ATP; apparent Kd
[7] = target: H2A nucleosome (77N4-ATTO 647N nucleosome) (S. cerevisiae | not stated (X. laevis H3.1 or H. sapiens H3.2 C110A made) | X. laevis) (UniProt P04911); experiment: fluorescence polarisation; as a1 but with 1 mM AMP-PNP; apparent Kd
[8] = target: H2A nucleosome (77N4-ATTO 647N nucleosome) (S. cerevisiae | not stated (X. laevis H3.1 or H. sapiens H3.2 C110A made) | X. laevis) (UniProt P04911); experiment: fluorescence polarisation; as a1 but with 1 mM ADP; apparent Kd
[9] = target: H2A nucleosome (77N4-ATTO 647N nucleosome) (S. cerevisiae | not stated (X. laevis H3.1 or H. sapiens H3.2 C110A made) | X. laevis) (UniProt P04911); experiment: fluorescence polarisation; 0-250 nM SWR1C titrated to 10 nM 77N4-ATTO 647N nucleosome, no nucleotide; 25 mM HEPES-KOH pH 7.6, 70 mM KCl, 0.2 mM EDTA, 5 mM MgCl2, 1 mM DTT, 0.1 mg/mL BSA; 20 min, room temperature; quadratic binding equation, global fit; apparent Kd
[10] = target: H2A.Z nucleosome (77N4-ATTO 647N nucleosome) (S. cerevisiae | not stated (X. laevis H3.1 or H. sapiens H3.2 C110A made) | X. laevis) (UniProt Q12692); experiment: as above
SWR1C [11] = target: T1, SWR1C; experiment: fluorescence polarization of SWR1C binding to labelled H2A nucleosome with added nucleotide (no constant for the nucleotide); conditions: 1 mM ADP, 10 nM 77N4-ATTO 647N nucleosome, 5 mM MgCl2, pH 7.6, room temperature; indirect, nucleotide modulates nucleosome affinity

mean lifetime of the bound state [1]: 34 s
percent of nucleosomes bound within 10 s [1]: 50%
percent of nucleosomes that bound at least one dimer in 5 min [1]: 89%
Molecule: Cy3B-H2A.Z/H2B dimer (from UniProt P02293 5-131) (complex)

half-life of release (t release) [2]: 3.65 min
half-life of release (t release) [3]: 1.6 min
Molecule: Cy3B-labeled H2A/H2B dimer (from UniProt P02293 5-131) (complex)

Molecule: 77N4 H2A nucleosome (ATTO 647N)
Kd ([4]; 1 mM ADP): 21 nM
Kd ([4]; 1 mM AMP-PNP): 14 nM
Kd ([4]; 1 mM ATP): 31 nM
Kd ([4]; no nucleotide (apo), 5 replicates): 12 nM

Molecule: Nc1ncnc2c1ncn2[C@@H]1O[C@H](COP(=O)(O)OP(=O)(O)OP(=O)(O)O)[C@@H](O)[C@H]1O [ATP]
single-molecule FRET of H2A/H2B eviction from immobilised nucleosomes (SWR1C [5]): Priming is ATP-sensitive, as the duration of the priming phase (tprime) decreased with increasing ATP concentration

Kd [6]: 31 nM
Kd [7]: 14 nM
Kd [8]: 21 nM
Kd [9]: 12 nM
Kd [10]: 25 nM
Molecule: SWR1C (from UniProt Q05471 1-1514; P38326 1-303; Q12509 1-438; Q03433 1-280; P31376 1-625) (complex)

Molecule: 77N4 H2A.Z nucleosome (ATTO 647N)
Kd ([4]; no nucleotide (apo)): 25 nM

Molecule: Nc1ncnc2c1ncn2[C@@H]1O[C@H](COP(=O)(O)OP(=O)(O)O)[C@@H](O)[C@H]1O [ADP]
fluorescence polarization of SWR1C binding to labelled H2A nucleosome with added (SWR1C [11]): a decrease in binding was also observed with ADP
